{"source": "patent US20230192890A1", "key": {"[1]": {"target": "full-length recombinant mouse PAD4 (mouse) (UniProt Q9Z183)", "sequence (Q9Z183 whole entry)": "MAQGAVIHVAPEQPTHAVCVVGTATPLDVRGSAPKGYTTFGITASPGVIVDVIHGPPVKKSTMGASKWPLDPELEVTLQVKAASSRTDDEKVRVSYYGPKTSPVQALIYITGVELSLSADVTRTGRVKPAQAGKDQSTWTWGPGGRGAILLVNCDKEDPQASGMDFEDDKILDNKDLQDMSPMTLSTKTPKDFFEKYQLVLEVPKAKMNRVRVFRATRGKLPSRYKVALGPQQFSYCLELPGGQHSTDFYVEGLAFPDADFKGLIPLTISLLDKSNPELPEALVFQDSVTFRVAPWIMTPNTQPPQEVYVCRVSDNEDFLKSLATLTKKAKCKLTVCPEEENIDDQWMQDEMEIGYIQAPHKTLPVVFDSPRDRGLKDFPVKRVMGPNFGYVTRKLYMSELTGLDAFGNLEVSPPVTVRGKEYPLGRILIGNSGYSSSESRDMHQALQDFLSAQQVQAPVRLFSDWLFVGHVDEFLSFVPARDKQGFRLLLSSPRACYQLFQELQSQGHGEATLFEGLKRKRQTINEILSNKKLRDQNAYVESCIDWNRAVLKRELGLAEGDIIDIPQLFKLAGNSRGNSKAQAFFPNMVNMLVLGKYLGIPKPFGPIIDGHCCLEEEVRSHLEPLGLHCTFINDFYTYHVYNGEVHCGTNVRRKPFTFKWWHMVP", "assay": "ELISA, mouse PAD4 on plate, antibody 0.0002441 ug/mL"}, "[2]": {"target": "full-length recombinant mouse PAD4 (mouse) (UniProt Q9Z183)", "assay": "ELISA, mouse PAD4 on plate, antibody 0.015625 ug/mL"}, "[3]": {"target": "full-length recombinant mouse PAD4 (mouse) (UniProt Q9Z183)", "assay": "ELISA, mouse PAD4 on plate, antibody 0.25 ug/mL"}, "[4]": {"target": "full-length recombinant mouse PAD4 (mouse) (UniProt Q9Z183)", "assay": "ELISA, mouse PAD4 on plate, antibody 0.0625 ug/mL"}, "[5]": {"target": "full-length recombinant mouse PAD4 (mouse) (UniProt Q9Z183)", "assay": "ELISA, mouse PAD4 on plate, antibody 0.0009766 ug/mL"}, "[6]": {"target": "full-length recombinant mouse PAD4 (mouse) (UniProt Q9Z183)", "assay": "ELISA, mouse PAD4 on plate, antibody 6.104E-05 ug/mL"}, "[7]": {"target": "T1, Ala mutant having 3-amino acid substitution, SEQ ID NO: 47 (human)", "T1 sequence (peptide)": "EENMDDQWMAAAMEIGY", "assay": "ELISA, peptide on plate (10 ug/mL)"}, "[8]": {"target": "T2, Ala mutant SEQ ID NO: 27 (human)", "T2 sequence (peptide)": "AENMDDQWMQDEMEIGY", "assay": "ELISA, peptide on plate (10 ug/mL)"}, "[9]": {"target": "T3, Ala mutant SEQ ID NO: 31 (human)", "T3 sequence (peptide)": "EENMADQWMQDEMEIGY", "assay": "ELISA, peptide on plate (10 ug/mL)"}, "[10]": {"target": "T4, Ala mutant SEQ ID NO: 40 (human)", "T4 sequence (peptide)": "EENMDDQWMQDEMAIGY", "assay": "ELISA, peptide on plate (10 ug/mL)"}, "[11]": {"target": "T5, Ala mutant SEQ ID NO: 30 (human)", "T5 sequence (peptide)": "EENADDQWMQDEMEIGY", "assay": "ELISA, peptide on plate (10 ug/mL)"}, "[12]": {"target": "T6, Ala mutant having 3-amino acid substitution, SEQ ID NO: 46 (human)", "T6 sequence (peptide)": "EENMDDAAAQDEMEIGY", "assay": "ELISA, peptide on plate (10 ug/mL)"}, "[13]": {"target": "T7, Ala mutant SEQ ID NO: 29 (human)", "T7 sequence (peptide)": "EEAMDDQWMQDEMEIGY", "assay": "ELISA, peptide on plate (10 ug/mL)"}, "[14]": {"target": "T8, Ala mutant SEQ ID NO: 32 (human)", "T8 sequence (peptide)": "EENMDAQWMQDEMEIGY", "assay": "ELISA, peptide on plate (10 ug/mL)"}, "[15]": {"target": "T9, Ala mutant SEQ ID NO: 33 (human)", "T9 sequence (peptide)": "EENMDDAWMQDEMEIGY", "assay": "ELISA, peptide on plate (10 ug/mL)"}, "[16]": {"target": "Ala mutant SEQ ID NO: 35 (human)", "assay": "ELISA, peptide on plate (10 ug/mL)"}, "[17]": {"target": "T10, Ala mutant SEQ ID NO: 28 (human)", "T10 sequence (peptide)": "EANMDDQWMQDEMEIGY", "assay": "ELISA, peptide on plate (10 ug/mL)"}, "[18]": {"target": "T11, Ala mutant SEQ ID NO: 43 (human)", "T11 sequence (peptide)": "EENMDDQWMQDEMEIGA", "assay": "ELISA, peptide on plate (10 ug/mL)"}, "[19]": {"target": "T12, Ala mutant SEQ ID NO: 42 (human)", "T12 sequence (peptide)": "EENMDDQWMQDEMEIAY", "assay": "ELISA, peptide on plate (10 ug/mL)"}, "[20]": {"target": "T13, Ala mutant having 3-amino acid substitution, SEQ ID NO: 49 (human)", "T13 sequence (peptide)": "EENMDDQWMQDEMEIAA", "assay": "ELISA, peptide on plate (10 ug/mL)"}, "[21]": {"target": "Ala mutant SEQ ID NO: 34 (human)", "assay": "ELISA, peptide on plate (10 ug/mL)"}, "[22]": {"target": "T14, Ala mutant SEQ ID NO: 39 (human)", "T14 sequence (peptide)": "EENMDDQWMQDEAEIGY", "assay": "ELISA, peptide on plate (10 ug/mL)"}, "[23]": {"target": "T15, TA0096 (peptide antigen corresponding to positions 340 to 356 of PAD4) (human)", "T15 sequence (peptide)": "EENMDDQWMQDEMEIGY", "assay": "ELISA, peptide on plate (10 ug/mL)"}, "[24]": {"target": "T16, Ala mutant SEQ ID NO: 37 (human)", "T16 sequence (peptide)": "EENMDDQWMQAEMEIGY", "assay": "ELISA, peptide on plate (10 ug/mL)"}, "[25]": {"target": "T17, Ala mutant SEQ ID NO: 41 (human)", "T17 sequence (peptide)": "EENMDDQWMQDEMEAGY", "assay": "ELISA, peptide on plate (10 ug/mL)"}, "[26]": {"target": "T18, Ala mutant having 3-amino acid substitution, SEQ ID NO: 44 (human)", "T18 sequence (peptide)": "AAAMDDQWMQDEMEIGY", "assay": "ELISA, peptide on plate (10 ug/mL)"}, "[27]": {"target": "T19, Ala mutant SEQ ID NO: 36 (human)", "T19 sequence (peptide)": "EENMDDQWMADEMEIGY", "assay": "ELISA, peptide on plate (10 ug/mL)"}, "[28]": {"target": "T20, Ala mutant SEQ ID NO: 38 (human)", "T20 sequence (peptide)": "EENMDDQWMQDAMEIGY", "assay": "ELISA, peptide on plate (10 ug/mL)"}, "[29]": {"target": "T21, Ala mutant having 3-amino acid substitution, SEQ ID NO: 48 (human)", "T21 sequence (peptide)": "EENMDDQWMQDEAAAGY", "assay": "ELISA, peptide on plate (10 ug/mL)"}, "[30]": {"target": "full-length recombinant mouse PAD4 (mouse) (UniProt Q9Z183)", "assay": "ELISA, mouse PAD4 on plate, antibody 1 ug/mL"}, "[31]": {"target": "full-length recombinant mouse PAD4 (mouse) (UniProt Q9Z183)", "assay": "ELISA, mouse PAD4 on plate, antibody 0.0039063 ug/mL"}}}
{"substance": "anti-dinitrophenyl (DNP) antibody (negative control)", "values": [{"measurement": "absorbance 490 nm/630 nm", "setting": "[1]", "value": 0.034, "unit": "OD"}, {"measurement": "absorbance 490 nm/630 nm", "setting": "[2]", "value": 0.018, "unit": "OD"}, {"measurement": "absorbance 490 nm/630 nm", "setting": "[3]", "value": 0.023, "unit": "OD"}, {"measurement": "absorbance 490 nm/630 nm", "setting": "[4]", "value": 0.02, "unit": "OD"}, {"measurement": "absorbance 490 nm/630 nm", "setting": "[5]", "value": 0.021, "unit": "OD"}, {"measurement": "absorbance 490 nm/630 nm", "setting": "[6]", "value": 0.011, "unit": "OD"}, {"measurement": "absorbance 490 nm/630 nm", "setting": "[7]", "value": 0.052, "unit": "OD"}, {"measurement": "absorbance 490 nm/630 nm", "setting": "[8]", "value": 0.007, "unit": "OD"}, {"measurement": "absorbance 490 nm/630 nm", "setting": "[9]", "value": 0.004, "unit": "OD"}, {"measurement": "absorbance 490 nm/630 nm", "setting": "[10]", "value": 0.011, "unit": "OD"}, {"measurement": "absorbance 490 nm/630 nm", "setting": "[11]", "value": 0.009, "unit": "OD"}, {"measurement": "absorbance 490 nm/630 nm", "setting": "[12]", "value": 0.052, "unit": "OD"}, {"measurement": "absorbance 490 nm/630 nm", "setting": "[13]", "value": 0.001, "unit": "OD"}, {"measurement": "absorbance 490 nm/630 nm", "setting": "[14]", "value": 0.012, "unit": "OD"}, {"measurement": "absorbance 490 nm/630 nm", "setting": "[15]", "value": 0.011, "unit": "OD"}, {"measurement": "absorbance 490 nm/630 nm", "setting": "[16]", "value": 0.011, "unit": "OD"}, {"measurement": "absorbance 490 nm/630 nm", "setting": "[17]", "value": 0.001, "unit": "OD"}, {"measurement": "absorbance 490 nm/630 nm", "setting": "[18]", "value": 0.057, "unit": "OD"}, {"measurement": "absorbance 490 nm/630 nm", "setting": "[19]", "value": 0.017, "unit": "OD"}, {"measurement": "absorbance 490 nm/630 nm", "setting": "[20]", "value": 0.065, "unit": "OD"}, {"measurement": "absorbance 490 nm/630 nm", "setting": "[21]", "value": 0.017, "unit": "OD"}, {"measurement": "absorbance 490 nm/630 nm", "setting": "[22]", "value": 0.008, "unit": "OD"}, {"measurement": "absorbance 490 nm/630 nm", "setting": "[23]", "value": 0.052, "unit": "OD"}, {"measurement": "absorbance 490 nm/630 nm", "setting": "[24]", "value": 0.01, "unit": "OD"}, {"measurement": "absorbance 490 nm/630 nm", "setting": "[25]", "value": 0.01, "unit": "OD"}, {"measurement": "absorbance 490 nm/630 nm", "setting": "[26]", "value": 0.054, "unit": "OD"}, {"measurement": "absorbance 490 nm/630 nm", "setting": "[27]", "value": 0.008, "unit": "OD"}, {"measurement": "absorbance 490 nm/630 nm", "setting": "[28]", "value": 0.012, "unit": "OD"}, {"measurement": "absorbance 490 nm/630 nm", "setting": "[29]", "value": 0.052, "unit": "OD"}, {"measurement": "absorbance 490 nm/630 nm", "setting": "[30]", "value": 0.028, "unit": "OD"}, {"measurement": "absorbance 490 nm/630 nm", "setting": "[31]", "value": 0.024, "unit": "OD"}]}
